The target of this test is T1, sIL-5Rα antigen protein (Sinobio 10392-H08H) (Homo sapiens (Human), UniProt Q01344 21-342).
T1 construct: Bought protein immobilised in the indirect ELISAs; also called soluble IL-5Rα; CD125
T1 sequence: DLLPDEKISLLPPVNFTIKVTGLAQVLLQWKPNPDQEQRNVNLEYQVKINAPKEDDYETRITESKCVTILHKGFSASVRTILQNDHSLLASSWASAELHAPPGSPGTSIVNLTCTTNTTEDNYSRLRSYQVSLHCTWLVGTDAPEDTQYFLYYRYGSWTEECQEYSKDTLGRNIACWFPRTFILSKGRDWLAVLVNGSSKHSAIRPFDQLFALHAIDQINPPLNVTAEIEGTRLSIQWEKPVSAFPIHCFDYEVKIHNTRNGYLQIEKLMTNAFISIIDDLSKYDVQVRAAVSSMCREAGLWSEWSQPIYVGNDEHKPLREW
The experiment in a line: indirect ELISA; plate-coated sIL-5Rα, antibody 100, 10, 1 nM, anti-human Fc-HRP, absorbance at 450 nm. The protocol: After discarding the solution and washing the same three times with 0.1% PBST, an anti-human Fc-HRP antibody (1:8000) as a secondary antibody was added in an amount of 25 μl/well and reacted at room temperature for 1 hour.
A general note: ELISA stands for enzyme-linked immunosorbent assay.

B1: 4R34.1.19-SL-5R65 (bispecific antibody, human IgG1, kappa)
light: QSVLTQPPSASGTPGQRVTISCSGSPLFPDSGSFNWYQQLPGTAPKLLIYADSHRPSGVPDRFSGSKSGTSASLAISGLRSEDEADYYCGTWDYSLSGYVLGGGTKLTVLGTVAAPDIQMTQSPSTLSASVGDRVTITCKASQNVGTAVAWYQQKPGKAPKLLIYWASTRHTGVPDRFSGSGSGTDFTLTISSLQPDDFATYYCQQFGRYPYTFGSGTKVEVKRTVAAPSVFIFPPSDEQLKSGTASVVCLLNNFYPREAKVQWKVDNALQSGNSQESVTEQDSKDSTYSLSSTLTLSKADYEKHKVYACEVTHQGLSSPVTKSFNRGEC
heavy: not shown
notes: The 4R34.1.19 variable regions are outermost and the 5R65 variable regions come second; also called 4R-SL-5R; DVD-IgG
On to B1, for which the binding result is given as “binds”.

These data come from US20230357415A1 (AJOU UNIVERSITY INDUSTRY ACADEMIC COOPERATION FOUNDATION, published 2023).
